Assays:
Format in all cases: cell-based
[1] = test system: gene editing with Cas9 and dCas9; experiment: Screen of 322 new SSAP proteins, activity across all experiments (Cas9 and dCas9, Table 5); design: scale not given here
Method in brief: (§1)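 Read-out is gene editing activity. Candidates come from sequence data mining, are made synthetically, and are tested alongside either nuclease-active Cas9 or catalytically dead dCas9.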

gene editing with dCas9 = experiment: Screen of 322 new SSAP proteins, gene editing activity with dCas9 (Table 5); design: dCas9 with SSAP activity: scale not given here
Method in brief: as §1

gene editing with Cas9 = experiment: Screen of 322 new SSAP proteins, gene editing activity with Cas9 (Table 5); design: Cas9 with SSAP activity: scale not given here
Method in brief: as §1

B1: SSAP_89: SEQ ID NO: 258; Pantoea brenneri (protein, listed as Pantoea brenneri)
chain: SNQPPIASADLQKTQQSKQVANKTPEQTLVGFMNQPAMKSQLAAALPRHMTADRMIRIVTTEIRKTPQLAQCDQSSFIGAVVQCSQLGLEPGSALGHAYLLPFGNGRSKSGQSNVQLIIGYRGMIDLARRSGQIVSLSARVVRADDEFSFEYGLDENLVHRPGENEDAPITHVYAVARLKDGGTQFEVMTVKQVEKVKAQSKASSNGPWVTHWEEMAKKTVIRRLFKYLPVSIEMQKAVVLDEKAESDVDQDNASVLSAEYSVLESGDEATN
Activity across all experiments [1]: 0.393
dCas9 with SSAP activity (gene editing with dCas9): 0.225
dCas9 with SSAP activity (normalized) (gene editing with dCas9): 0.240
Cas9 with SSAP activity (gene editing with Cas9): 0.562
Cas9 with SSAP activity (normalized) (gene editing with Cas9): 0.533

B2: SSAP_189: SEQ ID NO: 358; Asaia sp. W19 (protein, listed as Asaia sp.)
chain: SNALATPTEKLRTQITSMTGEFRNALPSHIKPEKFQRVVMTVVQQNQGLMNADRKSLLASCLKCAADGLIPDGREAALVMFGQQVQYMPMLAGIQKRIRNSGEIASIQAHVIYENDHFIWHQGIDASIEHRPLFPGDRGKAIGAYAVAKFKDGSDPQFEVMDVAAIEKVRAVSRAGKSGPWVQWWDEMARKTVFRRLSKWLPMDTEAEDLMRRDDENDAQDVAAPTIRVEAEAPSKLDALEHDDDGVVLEETRELEGSAA
Activity across all experiments [1]: −3.046
dCas9 with SSAP activity (gene editing with dCas9): −5.652
dCas9 with SSAP activity (normalized) (gene editing with dCas9): −0.952
Cas9 with SSAP activity (gene editing with Cas9): −0.440
Cas9 with SSAP activity (normalized) (gene editing with Cas9): −2.025

B3: SSAP_217: SEQ ID NO: 386; Streptomyces noursei (protein, listed as Streptomyces noursei)
chain: TSPIRAAVARRAGDPAALISQYTADFAAVLPSHIKPATFVRLAQGILRRDEKLAQAAANDPGQFMSVLLDAARLGLEPGTEAYYLVPFKGRVQGIVGWQGEIELMYRAGAISSVIVETVREDDVFVWTPGLVDRETPPRWEGPMSYPFHEVEWAGDRGPLRLVYAYAVMKGGATSKVVVLNAQDIERAKKTSQGADSPSSPWRQHEAAMWSKTAVHRLAKYVPTSAEYITAQVRAVRQADALSAPPVEEVVDVELVGDGQEQEARR
Activity across all experiments [1]: −3.758
dCas9 with SSAP activity (gene editing with dCas9): −5.577
dCas9 with SSAP activity (normalized) (gene editing with dCas9): −0.839
Cas9 with SSAP activity (gene editing with Cas9): −1.938
Cas9 with SSAP activity (normalized) (gene editing with Cas9): −1.023

B4: SSAP_264: SEQ ID NO: 433; Cereibacter johrii (protein, listed as Cereibacter johrii)
chain: TENTAQAPAAARQLTPIQAISQTLESDAFAPKISASLDGTGISPARFKRAALACLSRPEASYLVEKCDRGSIFTAVMNAAAAELELHPALGQAYIVPRGGQAVLQVGYKGFIALASRAGLAVEADVIYAGDRFSIRKGTNPDVSVEPELDPAKRGEWVAVYVITHYASGAKTLTFMTRAEVEAIRNRYSDAYKRGGAGAKTWNESPEEMAKKTCIRRASKLWPISVPGGGDDDGGEVIEADPAPVPAPRMRDVTPGGGLDRLAASL
Activity across all experiments [1]: −2.625
dCas9 with SSAP activity (gene editing with dCas9): −5.815
dCas9 with SSAP activity (normalized) (gene editing with dCas9): −0.919
Cas9 with SSAP activity (gene editing with Cas9): 0.565
Cas9 with SSAP activity (normalized) (gene editing with Cas9): 0.375

B5: SSAP_174: SEQ ID NO: 343; Hespellia stercorisuis (protein, listed as Hespellia stercorisuis)
chain: ADIKEELAKKVAEGTEDKKKLTKSMSIADLIKAMEPEIKKALPEVITPERFTRMALSALNTTPKLKECTQTSFLTALMNAAQLGLEPNTPLGQAYLIPYKNKGNLECQFQIGYKGLIDLSYRNRQMQIIQAQAVYENDEFEYELGLNPVLVHRPALQNRGAVKLFYGIFKLTNGGFGFEVMSKADMDAYAKEYSKAFDSSFSPWKSNYIGMAKKTVIKQAIKYAPLKTDFRKALSTDETIKTEFCEDMSEVQCKDIWDTEYKERSA
Activity across all experiments [1]: −4.727
dCas9 with SSAP activity (gene editing with dCas9): −5.563
dCas9 with SSAP activity (normalized) (gene editing with dCas9): −1.144
Cas9 with SSAP activity (gene editing with Cas9): −3.891
Cas9 with SSAP activity (normalized) (gene editing with Cas9): −0.617

B6: SSAP_115: SEQ ID NO: 284; Lacrimispora amygdalina (protein, listed as Lacrimispora amygdalina)
chain: AVDVKNELERKASGQNSQVKLTKSMTIADMVKALEPEIKRALPAVLTPERFTRMALSAINNTPELAGCTPMSFIAAMMNAAQLGLEPNTPLGQAYLIPYKNKGVLECQFQIGYKGMIDLAYRTGQIQVIQGQAVREFDYFEYQYGLDPKLVHRPGEEERGEITFIYGLFRLSNGGYGFEVSNKADMDAFAAKYSKSFGSKYSPWTENYEDMAKKTVIKRALKYAPVSVDFQKAMSMDETIKTEISVDMSEIRNECPEISENGEAA
Activity across all experiments [1]: −4.992
dCas9 with SSAP activity (gene editing with dCas9): −5.725
dCas9 with SSAP activity (normalized) (gene editing with dCas9): −1.307
Cas9 with SSAP activity (gene editing with Cas9): −4.259
Cas9 with SSAP activity (normalized) (gene editing with Cas9): −0.733

B7: SSAP_157: SEQ ID NO: 326; Pseudoflavonifractor sp. An184 (protein, listed as Pseudoflavonifractor sp.)
chain: ATEKAIQRATGRAPALENRPALQQYIKQMSGEIKKALPSVMTPERFTRIVLSALSTNPKLAETTPQSFLGAMMTAAQLGLEPNTPLGQAYLLPYWNSKANAYECQFQLGYKGLLDLAYRSGEISVIQAHVVYSEDQFSYSFGLKPELKHIPAGEERGEPVYVYAIFHTKDGGYGFEVCSIDDIRAHAQRYSKSFQNGPWQTNFEEMAKKTVLKRVLKYAPLKSEFLRGLAQDETIKQEISEDMYMVEAAYAEPDVSSAEND
Activity across all experiments [1]: −4.633
dCas9 with SSAP activity (gene editing with dCas9): −5.734
dCas9 with SSAP activity (normalized) (gene editing with dCas9): −0.898
Cas9 with SSAP activity (gene editing with Cas9): −3.533
Cas9 with SSAP activity (normalized) (gene editing with Cas9): −1.181

B8: SSAP_9: SEQ ID NO: 178; Bet Gammaproteobacteria (protein)
chain: EKPKLIQRFAERFSVDPNKLFDTLKATAFKQRDGSAPTNEQMMALLVVADQYGLNPFTKEIFAFPDKQAGIIPVVGVDGWSRIINQHDQFDGMEFKTSENKVSLDGAKECPEWMECIIYRRDRSHPVKITEYLDEVYRPPFEGNGKNGPYRVDGPWQTHTKRMLRHKSMIQCSRIAFGFVGIFDQDEAERIIEGQATHVVEPSVIPPEQVDDRTRGLVYKLIERAEASNAWNSALEYANEHFQGVELTFAKQEIFNAQQQAAKALTQPLAS
modifications: Gammaproteobacteria
notes: Bet Gammaproteobacteria
Activity across all experiments [1]: −3.138
dCas9 with SSAP activity (gene editing with dCas9): −5.773
dCas9 with SSAP activity (normalized) (gene editing with dCas9): −1.126
Cas9 with SSAP activity (gene editing with Cas9): −0.503
Cas9 with SSAP activity (normalized) (gene editing with Cas9): −1.380

B9: SSAP_182: SEQ ID NO: 351; Lacrimispora sphenoides (protein)
chain: ADVKQELEKRAAGSGGQSVKLTKNMTIVDMVKALEPEIKRALPCILTPERFSRMALSAINNTPKLGECTPMSFIAALMNAAQLGLEPNTPLGQAYLIPYKNKGVLECQFQLGYRGLIDLAYRNERMQSIEAQVVYDNDEFSYELGLHPSLIHRPTFDEPGEIQAFYAIFRLDNGGFRFEVMSKNYVDSLCHALFKSIYFRFQSLEK
modifications: Lacrimispora sphenoides
Activity across all experiments [1]: −3.606
dCas9 with SSAP activity (gene editing with dCas9): −5.663
dCas9 with SSAP activity (normalized) (gene editing with dCas9): −0.742
Cas9 with SSAP activity (gene editing with Cas9): −1.549
Cas9 with SSAP activity (normalized) (gene editing with Cas9): −1.689
